The text below walks through data of publication PMC10894483, “In silico design of multipoint mutants for enhanced performance of Thermomyces lanuginosus lipase for efficient biodiesel production” (Biotechnology for Biofuels and Bioproducts, 2024).

Substrate in the series: CCCCCCCCCCCCCCCC(=O)Oc1ccc([N+](=O)[O-])cc1
Description: colorimetric p-nitrophenol release, Michaelis-Menten fit. It is filed as biochemical, Thermomyces lanuginosus. Conditions: 45 °C, Tris-HCl pH 8.5, 10-100 mM pNPP, fermentation supernatant.

B1: Thermomyces lanuginosus lipase (TLL; wt–TLL) (Thermomyces lanuginosus) (protein)
chain: EVSQDLFNQFNLFAQYSAAAYCGKNNDAPAGTNITCTGNACPEVEKADATFLYSFEDSGVGDVTGFLALDNTNKLIVLSFRGSRSIENWIGNLNFDLKEINDICSGCRGHDGFTSSWRSVADTLRQKVEDAVREHPDYRVVFTGHSLGGALATVAGADLRGNGYDIDVFSYGAPRVGNRAFAEFLTVQTGGTLYRITHTNDIVPRLPPREFGYSHSSPEYWIKSGTLVPVTRNDIVKIEGIDATGGNNQPNIPDIPAHLWYFGLIGTCL
notes: N-terminal 6xHis-tag, yeast secretion signal, secreted from Pichia pastoris GS115; fermentation supernatant used without purification (single band); 35 kDa
As for B1, the Michaelis constant (Km) (as a rule, the substrate concentration at which the rate is half of its maximum) is listed as 3.61 ± 0.10 mM.
